# Source: paper PMC2646873 (Biochemistry, 2008)
# B1: CysM (Rv1336) (enzyme)
# chain: MTRYDSLLQALGNTPLVGLQRLSPRWDDGRDGPHVRLWAKLEDRNPTGSIKDRPAVRMIEQAEADGLLRPGATILEPTSGNTGISLAMAARLKGYRLICVMPENTSVERRQLLELYGAQIIFSAAEGGSNTAVATAKELAATNPSWVMLYQYGNPANTDSHYCGTGPELLADLPEITHFVAGLGTTGTLMGTGRFLREHVANVKIVAAEPRYGEGVYALRNMDEGFVPELYDPEILTARYSVGAVDAVRRTRELVHTEGIFAGISTGAVLHAALGVGAGALAAGERADIALVVADAGWKYLSTGAYAGSLDDAETALEGQLWA
# Molecular target: the molecule itself
# Assay: crystal structure
protein,measurement,value
B1,stoichiometry N,2
